From US20180127502A1 (Memorial Sloan Kettering, published 2018)

B1: anti-PD-1 scFv-Fc clone 23 (scFv linked to murine Fc) (Fc fusion)
chain: QAVLTQPPSMSEAPRQRVTISCSGSSSNIGNNAVNWYQQLPGKAPKLLIYYNDLLSSGVSDRFSGSKSGTSASLAISGLQSEDEADYYCAAWDDSVNGYVFGTGTKVTVLGGSRGGGGSGGGGSGGGGSEVQLVQSGAEVKKPGDSVKVSCKASGYTFTRFGFSWVRQAPGQGLEWMGWISVNNGNTKYAQKYQGRVTMTTDTSTSTAYMELRSLRSDDTAVYYCARYMYGRRDSWGQGTLVTVSS
notes: also called PD1-23; not shown: murine Fc (mouse IgG1a) domain
B2: anti-PD-1 scFv-Fc clone 26 (scFv linked to murine Fc) (Fc fusion)
chain: QSVLTQPPSVSVAPGKTARITCGGNNIGSKSVHWYQQKPGQAPVLVIYYDSDRPSGIPERFSGSNSGNTATLTISRVEAGDEADYYCQVWDNHSDVVFGGGTKLTVLGGGGGSGGGGSGGGGSQVQLVESGGGLVQPGGSLRLSCAASGYTRNKFSSYAMSWVRQAPGKGLEWVSGISGSGGTTYYADSVKGRFTISRDNSKNTQYLQLDSLRAEDTAVYYCARWYSSYYDVWGQGTLVTVSS
notes: also called PD1-26; not shown: murine Fc (mouse IgG1a) domain
B3: anti-PD-1 scFv-Fc clone 40 (scFv linked to murine Fc) (Fc fusion)
chain: QSVLTQPPSASGTPGQRVTISCSGSRSNIGENTVNWYQQLPGTAPKLLIYSNNQRPSGVPDRFSGSKSGTSASLAISGLHSDDEADYFCAAWDDRLNGYVFGTGTKVTVLGGGGGSGGGGSGGGGSQVQLVQSGPEVKKPGASVKVSCKASGYTFTNYGFTWVRQAPGQGLEWMGWIGAQKGDTEYAQKFQGRVTMTTDTSTSTVYLELRSLRSDDTAVYYCARSQGVPFDSWGQGTLVTVSS
notes: also called PD-1-40; not shown: murine Fc (mouse IgG1a) domain
B4: anti-PD-1 clone 23 monoclonal antibody (antibody, V domains shown)
VH: EVQLVQSGAEVKKPGDSVKVSCKASGYTFTRFGFSWVRQAPGQGLEWMGWISVNNGNTKYAQKYQGRVTMTTDTSTSTAYMELRSLRSDDTAVYYCARYMYGRRDSWGQGTLVTVSS
VL: QAVLTQPPSMSEAPRQRVTISCSGSSSNIGNNAVNWYQQLPGKAPKLLIYYNDLLSSGVSDRFSGSKSGTSASLAISGLQSEDEADYYCAAWDDSVNGYVFGTGTKVTVLG
notes: also called Clone 23 mAb; ET130-23
B5: anti-PD-1 clone 26 monoclonal antibody (antibody, V domains shown)
VH: QVQLVESGGGLVQPGGSLRLSCAASGYTRNKFSSYAMSWVRQAPGKGLEWVSGISGSGGTTYYADSVKGRFTISRDNSKNTQYLQLDSLRAEDTAVYYCARWYSSYYDVWGQGTLVTVSS
VL: QSVLTQPPSVSVAPGKTARITCGGNNIGSKSVHWYQQKPGQAPVLVIYYDSDRPSGIPERFSGSNSGNTATLTISRVEAGDEADYYCQVWDNHSDVVFGGGTKLTVLG
notes: also called Clone 26 mAb; ET130-26
B6: anti-PD-1 clone 27 monoclonal antibody (antibody, V domains shown)
VH: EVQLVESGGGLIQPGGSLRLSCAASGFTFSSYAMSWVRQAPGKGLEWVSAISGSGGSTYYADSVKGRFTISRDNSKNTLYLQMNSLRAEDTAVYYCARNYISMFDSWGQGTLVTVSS
VL: QSVLTQPPSVSVAPGKTARITCGGNNIGSKSVHWYQQRPGQAPVLVIYYDSDRPSGIPERFSGSNSGNTATLTISRVEAGDEADYYCQVWDSSSDYVFGIGTKVTVLG
notes: also called Clone 27 mAb; E27 mAb

These binders were tested against human PD-1 monomer (human, UniProt Q15116 25-167, limits assumed) (assay: ELISA on PD-1 monomer (FIG. 1)).
Source text: ET901 ScFv-Fc (mouse IgG1 Fc) served as the negative control.

Sequence of human PD-1 monomer (Q15116 25-167 limits assumed): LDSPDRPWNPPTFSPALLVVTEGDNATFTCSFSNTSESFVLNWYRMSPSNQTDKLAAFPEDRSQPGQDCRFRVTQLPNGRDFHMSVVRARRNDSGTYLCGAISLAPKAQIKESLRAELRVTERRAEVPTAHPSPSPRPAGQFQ

Binder | binding result
B1 | binds
B2 | binds
B3 | binds

Each binder was assayed against T1, human PD-1 on human T cells (human, UniProt Q15116 25-288) (assay: flow cytometry, 1 µg/ml antibody, human T cells overexpressing human PD-1, goat anti-human Ig FITC).
T1 construct: whole, on cells; In the functional rows it is the PD-1 of the transduced human peripheral blood T cells; also called PD-1 T cells; human T cells modified to overexpress human PD-1
Source text: Flow cytometry was used to detect bound antibody using a goat anti-human Ig FITC conjugated antibody. […] Data shown is representative of one experiment.

T1 sequence (Q15116 25-288): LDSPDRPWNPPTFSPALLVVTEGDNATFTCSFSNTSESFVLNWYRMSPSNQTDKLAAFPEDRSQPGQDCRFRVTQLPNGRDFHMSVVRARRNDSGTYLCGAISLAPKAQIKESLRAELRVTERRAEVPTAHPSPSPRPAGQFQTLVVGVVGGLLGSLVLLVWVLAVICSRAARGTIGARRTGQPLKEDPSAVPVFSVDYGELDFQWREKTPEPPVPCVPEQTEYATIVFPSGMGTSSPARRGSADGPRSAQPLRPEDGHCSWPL

Binder | percent of PD-1 human T cells bound [%]
B4 | 51
B5 | 78
B6 | 67
